Results taken from article PMC11680790 (2024).

How the values were obtained:
[1] = molecular target: T1, NXE’992, chimeric peptide (pyrazole-QRPRL[AIB]S[PipALA]VPFP) (UniProt Q9ULZ1, pyrazole on the N-terminus; AIB at position 6; PipALA at position 8); test: SPR; pH 6.0
[2] = molecular target: T1, NXE’992, chimeric peptide …; test: SPR; pH 7.5

B1: human apelin stabilised receptor (NxStaR) (receptor)
chain: MEEGGDFDNYYGADNQSECEYTDWKSSGALIPAIYMLVFLLGTTGNGLVLWTVFRSSREKRRSADIFIASLAVADLTFVVTLPLWAVYTYRDYDWPFGTFFCKLSSYLIFVAMYASVFCLTGLSFDRYLAIVRPVANARLRLRVSGAVATAVLWVLAALLAMPVMVLRTTGDLENTTKVQCYMDYSMVATVSSEWAWEVGLGVSSTMVGFVVPLTIMLTCYFFAAQTIAGHFRKERIEGLRKRRRLLSIIVVLVVTFALCWMPYHLVKTLYMLGSLLHWPCDFDLFLMNIFPYCTCIAYVNSCLNPFLYAFFDPRFRQACTSMLCCGQSRCAGTSHSSSGEKSASYSSGHSQGPGPNMGKGGEQMHEKSIPYSQETLVVD
Binder B1 has a Kd [1] of 21 nM and a Kd [2] of 3.3 nM.
